According to US20210139579A1:
Substitutions are numbered along the chain they refer to. Where two headings read alike, the source gives them in different places.

Key:
[1] = biological target: human ROR1 (hROR1) on the cell surface (human) (UniProt Q01973); assay: cell-based or functional assay
[2] = biological target: human ROR1 (hROR1) on the cell surface (human) (UniProt Q01973); assay: cell-based or functional assay; remark: listed apart in the source

human ROR1 (hROR1) on the cell surface (human), sequence (Q01973 30-937): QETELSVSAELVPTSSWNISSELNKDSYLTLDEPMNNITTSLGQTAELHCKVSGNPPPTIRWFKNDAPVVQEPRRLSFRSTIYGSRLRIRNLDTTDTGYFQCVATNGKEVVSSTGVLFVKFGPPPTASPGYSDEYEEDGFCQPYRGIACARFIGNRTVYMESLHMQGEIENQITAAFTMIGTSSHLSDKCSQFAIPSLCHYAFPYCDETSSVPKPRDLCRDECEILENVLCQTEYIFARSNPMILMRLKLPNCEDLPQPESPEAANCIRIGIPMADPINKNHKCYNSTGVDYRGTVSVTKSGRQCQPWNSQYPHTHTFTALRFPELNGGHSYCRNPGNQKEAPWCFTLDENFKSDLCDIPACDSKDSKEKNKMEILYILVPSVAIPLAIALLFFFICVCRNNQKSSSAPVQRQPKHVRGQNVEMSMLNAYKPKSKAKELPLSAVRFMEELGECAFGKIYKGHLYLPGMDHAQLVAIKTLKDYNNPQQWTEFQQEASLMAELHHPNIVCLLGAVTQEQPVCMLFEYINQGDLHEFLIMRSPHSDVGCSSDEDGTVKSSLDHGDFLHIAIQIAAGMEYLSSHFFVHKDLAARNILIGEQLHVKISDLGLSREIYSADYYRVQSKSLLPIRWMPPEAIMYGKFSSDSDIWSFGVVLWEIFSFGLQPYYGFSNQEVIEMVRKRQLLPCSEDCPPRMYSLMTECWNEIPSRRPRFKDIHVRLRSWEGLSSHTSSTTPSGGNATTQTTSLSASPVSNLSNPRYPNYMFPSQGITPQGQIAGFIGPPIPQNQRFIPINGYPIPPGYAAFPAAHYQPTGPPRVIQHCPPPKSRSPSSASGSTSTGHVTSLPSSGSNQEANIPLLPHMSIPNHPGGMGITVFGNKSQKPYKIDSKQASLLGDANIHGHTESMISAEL

B1: XBR1-402-G5-PNU (antibody, V domains shown)
VH: QEQQKESGGGLFKPTDTLTLTCTASGFDISSYYMSWVRQAPGNGLEWIGAIGISGNAYYASWAKSRSTITRNTNLNTVTLKMTSLTAADTATYFCARDHPTYGMDLWGPGTLVTVSS
VL: SYELTQLPSVSVSLGQTARITCEGNNIGSKAVHWYQQKPGLAPGLLIYDDDERPSGVPDRFSGSNSGDTATLTISGAQAGDEADYYCQVWDSSAYVFGGGTQLTVTG
modifications: EDA-PNU-159682 derivative on the C-terminal glycine (G5-PNU joined by sortase)
IC50, in vitro cell killing of A549 cells [1]: 177 mg/L | IC50, in vitro cell killing of HS 578T cells [1]: 1.4 mg/L | IC50, in vitro cell killing of HT-29 cells [1]: 23.3 mg/L | IC50, in vitro cell killing of hROR1-overexpressing EMT-6 cells [1]: 0.0017 µM

B2: R12-G5-PNU (antibody, V domains shown)
VH: QEQLVESGGRLVTPGGSLTLSCKASGFDFSAYYMSWVRQAPGKGLEWIATIYPSSGKTYYATWVNGRFTISSDNAQNTVDLQMNSLTAADRATYFCARDSYADDGALFNIWGPGTLVTISS
VL: ELVLTQSPSVSAALGSPAKITCTLSSAHKTDTIDWYQQLQGEAPRYLMQVQSDGSYTKRPGVPDRFSGSSSGADRYLIIPSVQADDEADYYCGADYIGGYVFGGGTQLTVTG
modifications: EDA-PNU-159682 derivative on the C-terminal glycine (G5-PNU joined by sortase)
IC50, in vitro cell killing of 697 cells [2]: 0.873 mg/L | IC50, in vitro cell killing of 697 cells [1]: 0.1 µM | IC50, in vitro cell killing of HS 578T cells [1]: 3.5 mg/L | IC50, in vitro cell killing of HT-29 cells [1]: 10.3 mg/L | IC50, in vitro cell killing of MDA-MB-468 cells [1]: 3.96 mg/L

B3: Top43-G5-PNU (adc204) (antibody, V domains shown)
VH: QSLEESGGRLVTPGTPLTLTCTVSGFSLSSYWMSWVRQAPGKGLEWIGAIYGSGNTYYASWAKGRFTISKTSTTVDLKITSPTTEDTATYFCARDVHSTATDLWGPGTLVTISS
VL: SYELTQLPSVSVSLGQTARITCGGNNIGSKAVNWYQQKPGLAPGLLIYNDDERPSGVPDRFSGSNSGDTATLTISGAQAGDEADYYCQLWDSSAGAYVFGGGTQLTVTG
modifications: EDA-PNU-159682 derivative on the C-terminal glycine (G5-PNU joined by sortase)
IC50, in vitro cell killing of 697 cells [1]: 0.314 mg/L | IC50, in vitro cell killing of A549 cells [1]: 109 mg/L | IC50, in vitro cell killing of HS 578T cells [1]: 0.707 mg/L | IC50, in vitro cell killing of HT-29 cells [1]: 23.1 mg/L | IC50, in vitro cell killing of MDA-MB-468 cells [1]: 0.463 mg/L

B4: ERR1-301-G5-PNU (adc200) (antibody, V domains shown)
VH: QEQLEESGGGLVTPGGSLTLTCTASGFTISTYHMSWVRQAPGKGLEWIGSIYAGSGSTYYASWVNGRFTISSNTTQNTVSLQMNSLTVADTATYFCARDHPSYGMDLWGPGTLVTVSS
VL: B3 VL with N26S, N49D, G63A, G80E, G95V
modifications: EDA-PNU-159682 derivative on the C-terminal glycine (G5-PNU joined by sortase)
IC50, in vitro cell killing of 697 cells [1]: 0.592 mg/L
